Literature values as cited in article PMC8193598.
Where “and” joins values, the source holds several entries; their conditions need not be identical. Identical values can stand only once. Like-named read-outs stand apart in the source and are kept apart here.

Legend:
[1] = biological target: spike protein (SARS-CoV-2) (UniProt P0DTC2)
[2] = biological target: SARS-CoV-2 S1 CendR peptide CendR peptide (SARS-CoV-2) (UniProt P0DTC2)
[3] = biological target: spike protein (SARS-CoV-2) (UniProt P0DTC2); remark: listed apart in the source

Sequence of ASGR1 (P07306 whole entry): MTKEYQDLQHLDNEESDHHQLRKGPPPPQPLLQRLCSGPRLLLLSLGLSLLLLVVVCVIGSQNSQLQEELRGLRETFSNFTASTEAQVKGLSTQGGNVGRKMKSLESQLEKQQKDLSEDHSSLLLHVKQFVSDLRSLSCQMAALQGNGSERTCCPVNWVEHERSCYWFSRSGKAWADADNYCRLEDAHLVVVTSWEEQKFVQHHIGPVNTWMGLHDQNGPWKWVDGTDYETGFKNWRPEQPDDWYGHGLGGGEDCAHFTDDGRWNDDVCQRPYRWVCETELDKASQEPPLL
Sequence of KREMEN1 (Q96MU8 20-392): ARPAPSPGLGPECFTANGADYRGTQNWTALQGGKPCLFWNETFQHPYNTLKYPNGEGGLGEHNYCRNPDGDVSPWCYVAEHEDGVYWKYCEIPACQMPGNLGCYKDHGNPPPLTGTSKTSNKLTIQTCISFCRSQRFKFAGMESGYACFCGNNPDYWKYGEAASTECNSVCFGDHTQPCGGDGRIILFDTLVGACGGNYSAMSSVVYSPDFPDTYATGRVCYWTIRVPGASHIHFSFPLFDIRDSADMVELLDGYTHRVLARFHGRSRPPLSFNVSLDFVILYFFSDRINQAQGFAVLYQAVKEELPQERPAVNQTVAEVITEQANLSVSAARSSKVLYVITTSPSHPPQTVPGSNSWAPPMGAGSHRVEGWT

## KREMEN1 (from UniProt Q96MU8)
[1]
  Kd: 0.0193 µM

## neuropilin-1 coagulation factor domain (from UniProt O14786)
[2]
  Kd: 20.3 µM and 13 µM

## ASGR1 (from UniProt P07306)
[3]
  Kd: 0.0948 µM
